A short description of this data set: label from the status in PepcDB records.
Regarding “GQRQPSEQELLFRQQALLLEQQRIHQLRNYQASMEAAGIPVSFGGHRPLSRAQSSPASATFPVSVQEPPTKPRFTTGLVYDTLMLKHQCTCGSSSSHPEHAGRIQSIWSRLQETGLRGKCECIRGRKATLEELQTVHSEAHTLLYGTNPLNRQKLDSKKLLGSLASVFVRLPCGGVGVDSDTIWNEVHSAGAARLAVGCVVELVFKVATGELKNGFAVVRPPGHHAEESTPMGFCYFNSVAVAAKLLQQRLSVSKILIVDWDVHHGNGTQQAFYSDPSVLYMSLHRYDDGNFFPGSGAPDEVGTGPGVGFNVNMAFTGGLDPPMGDAEYLAAFRTVVMPIASEFAPDVVLVSSGFDAVEGHPTPLGGYNLSARCFGYLTKQLMGLAGGRIVLALEGGHDLTAICDASEACVSALLGNELDPLPEKVLQQRPNANAVRSMEKVMEIHSKYWRCLQRTTSTAGRSLIEAQTCENEEAETVTAMASLSVGVKPA”, the protein production entry is “failed”. The value for “GQRVLFGSGEAAQNLAAEISRLDAKNVMVVAGDFELPMARQVAADIDVKVWHSNVVMHVPIETAEEARSVAKENDIDVVVCVGGGSTTGLAKAIAMTTALPIIAVPTTYAGSEATNVWGLTEAARKTTGVDNKVLPVTVIYDSALTMSLP” was “not failed”; that for “GQTCARPMCIPPSYADLGKAARDIFNKGFGFGLVKLDVKTKSCSGVEFSTSGSSNTDTGKVTGTLETKYKWCEYGLTFTEKWNTDNTLGTEIAIEDQICQGLKLTFDTTFSPNTGKKSGKIKSSYKRECINLGCDVDFDFAGPAIHGSAVFGYEGWLAGYQMTFDSAKSKLTRNNFAVGYRTGDFQLHTNVNDGTEFGGSIYQKVCEDLDTSVNLAWTSGTNCTRFGIAAKYQLDPTASISAKVNNSSLIGVGYTQTLRPGVKLTLSALVDGKSINAGGHKVGLALELEA” was “failed”; that for “GSPLLAPAFEPSLGPPPEGAPPTIEAWFSFRSPYSWLFMPRIRHLAQAYGATLELRPILPMVMRGLAVPRIKTIYITLDCKREAERVGLPFGRIVDPVGAGAERALAVLHHAMALGLGEQFAELGLKAAFADGIALAEDEGLYGVARRAGLTDAQTAAALADDSWRQRAETNRAALLEAGLWGAPTFRITGHQAHWGQDRLYMLEEDLRAAMQGAAAPR” was “failed”. The value for “GSSGSSGDGTCTGAMPDGALDTAVCADEVGSEEDLYDDLHSSSHHYSHPGGGGEQLAINELISDGSVVCAEALWDHVTMDDQELGFKAGDVIEVMDATNREWWWGRVADGEGWFPASFVRLRVNQDEPADDDAPLAGNSGAEDGGAEAQSSKDQMRTNVINEILSTERDYIKHLRDICEGYVRQCRKRADMFSEEQLRTIFGNIEDIYRCQKAFVKALEQRFNRERPHLSELGACFLEHQADFQIYSEYCNNHPNACVELSRLTKLSKYVYFFEACRLLQKMIDISLDGFLLTPVQKICKYPLQLAELLKYTHPQHRDFKDVEAALHAMKNVAQLINERKRRLENIDKIAQWQSSIEDWEGEDLLVRSSELIYSGELTRVTQPQAKSQQRMFFLFDHQLIYCKKDLLRRDVLYYKGRLDMDGLEVVDLEDGKDRDLHVSIKNAFRLHRGATGDSHLLCTRKPEQKQRWLKAFAREREQVQLD” was “not failed”. With “GSSGSSGDKKAYFYHSSFQILNVEYTEALNSPATHEYRTLSERIEAMITDEFRGSSLKSEFIRTHVVKLRKEGTGVVADVVMKFRSSKRNNRKVMKTRIQSVLRRLSSSGNLEIAPSNEITSLTDQDT” the entry was “not failed”; with “GSSGSSGMSNTTWGLQRDITPRLGARLVQEGNQLHYLADRASITGKFSDAECPKLDVVFPHFISQIESMLTTGELNPRHAQCVTLYHNGFTCEADTLGSCGYVYIAVYPTQR”, “not failed”; with “GVPPSQGDLEYQMSTTARAKRVREAMCPGVSGEGQLALLATQVEGQATNLQRLAEPSQLLKSAIVHLINYQDDAELVTRALPELTKLLNDEDPVVVTKAAMIVNQLSKKEASRRALMGSPQLVAAVVRTMQNTSDLDTARCTTSILHNLSHHREGLLAIFKSGGIPALVRMLSSPVESVLFYAITTLHNLLLYQEGAKMACAGRRAQKMVPLLNKNNPKFLAITTDCLQLLAYGNQESKLIILANGGPQALVQIMRNYSYEKLLWTTSRVLKVLSVCPSNKPAIVEAGGMQALGKHLTSNSPRLVQNCLWTLRNLSDVATKQEGLESVLKILVNQLSVDDVNVLTCATGTLSNLTCNNSKNKTLVTQNSGVEALIHAILRAGDKDDITEPAVCALRHLTSRHPEAEMAQNSVRLNYGIPAIVKLLNQPNQWPLVKATIGLIRNLALCPANHAPLQEAAVIPRLVQLLVKAHQDAQRHVAAGTQQPYTDGVRMEEIVEGCTGALHILARDPMNRMEIFRLNTIPLFVQLLYSSVENIQRVAAGVLCEL”, “failed”. For the sequence “GYRALSFPDPLDSQPVQAIAFYPSTGSEHLSIIHGYRVEASEDAPIAMGRFPLLLLSHGNTGTPLALHDLATSLARQGFVVVAVVHPGDNDRDHSRLGSLSNLYGRPLQISEAISTALLDPVLAPYLNARQ”, the protein production entry is “not failed”.

For the sequence “HAATAAEPPTAPTPPTQPAEGPGGADYRHASVHQWHFGEGAREYWVFTPEQPVPGNAPLVIFLHGWSVMQPDLYRAWIDHIVRRGMVVVYPRYQPDLKTPNAAFLDNAAGALGDALRRLQAGELGVRPRLNQVAYLGHSAGGLLAANLAAASERLK”, the protein production result is reported as “failed”. The value for “HFLLPFAEIPEQFPASKAVLMEHFYRRMRKRFGYLMTADGKPEGGQWNFDADNRNKLKSPDLLQLPTPLCFDNPVASIKARIERHRIPSIGQVGESLLWPINRAQALSLLAHFCQICLPNFGRFQDAMTAQHPHRWSLYHSRLSFALNSKLLSPREVIEATISAYRAAQGQISLAQVEGFVRQILGWREYVRGMYWSN” was “failed”; that for “HFPARVKVEPAVDTSRIKVFGPGIEGKDVFREATTDFTVDSRPLTQVGGDHIKAHIANPSGASTECFVTDNADGTYQVEYTPFEKGLHVVEVTYDDVPIPNSPFKVAVTEGCQPS” was “not failed”; that for “HFPINTLLLMRATTGVQLRLPERFGEFLDCLFRALWVDKRNLNDPATITQVLEQGGFDPQQILDLSNDEEVKAALKDKTEQALQKGVFGAPSMFVGDELFFGQDRLDFVREALNA” was “failed”. As to “HGTGKQTNALADYWTSEFVNSVRQGIPVPNNYTVINCDFDQYMWEEAAAGCLATQLNSFIQAKNIDDLILLTHSNGGNVVRWILSNPTWDSRYPAVINATSKVIALAPSSGGTPLADAVNQGNVFETTLGWLLGYGSNAVKQQQVGWMAHYNNTWLFGTAGRPRLGKPFEVVVGSDVDSAIWDSDSYCAGYQYQVALETTQNWLDSCSDGFLNCSSQKAAGTVWFTDKQKTRGQEPLSHQQSRRACFNLDTL”, the protein production result is “failed”. The value for “HIDLFDLDVEEPNDRIFIKGEAEEWPAYRKVPEVRENCNACGVCKDVCQYSAIYVIDKAYPLPELCHSCGACIYLCPEKAMEEVDYQTGKIVRVKSDITLTYGEMRIGEASAVFLIKQVKELMGKNAIIDSPPGASCPMVESVSDADYVILVAEPTPFGLHDLKIAAEVVSDLGLKFGVVVNKHGLPFDGIERYCKEGGVEILGKIPFSKEIAEKYSRGELLHDMKDFFVQLYEG” was “failed”; that for “HLHLRVKLLDNTMEIFDIEPKCDGQVLLTQVWKRLNLVECDYFGMEFQNTQSYWIWLEPMKPIIRQIRRPKNVVLRLAVK” was “failed”. The value for “HPKLVSSTPAEGSEGAAPAKIELHFSENLVTQFSGAKLVMTAMPGMEHSPMAVKAAVSGGGDPKTMVITPASPLTAGTYKVDWRAVSSDTHPITGSVTFK” was “not failed”; that for “HPLLAGIPFRQLARPLMQDLAYSVRGTVSIGLLDGPSVVYVETARSGDVGPHTPDIGMPIPVVRTAMGRAAASTLPEAEAERLDRQLEAADGAMWASHRDLYRDGLRQCAERQFCTCFGDYLPAIHAVAAPLFRQRDRSFAINCGIPAFRLQPGQLEDEIGPRVRALAESIRALGVDPE” was “failed”; that for “HQPNIIPYHKGFYRAFSKLHTTTFKYQAQSPQDIIDSLDDHHHLFLFVSEGLLKGYLYLEIDSQQSIAEIKYFSSHVDYRLKGIAFELLAYALQYAFDNFDIRKVYFKIRNKNNKLIERFNGLGFHINYEYIKFKFESRNVKDQTIPE” was “failed”. The value for “HVETIKNTFLNPKSNKVLVVAHRGNWRSAPENSTAAIDSAIAMKVDIVEIDIQKTKDGQLILMHDNTLDRTTTGKGEIKNWTLADIKKLKLKDKDGKVTNYVVPTLEEALLTAKGKIMVNLDKAYDIFDDVYAILEKTETQNQVIMKGGQPIETVKREFGSYLDKVLYMPVIDLGNKEAEKIITDYLKELRPAAFEIIYSDPKNPLPPKIKQLLFKKSLIWYNTLWGSLAGNHDDNLALTDPEKSYGYLIEQLGARILQTDQPAYLLDYLRKKGWHN” was “not failed”. For the sequence “IAALSRDITPQQDGSVIVDASITIRHLNRMMGWSLPLIGPRTLSGLIIEHLGYIPPPDSCLVIDHYHIEILRVSDNMIRGVKMIKTN”, the protein production result was “failed”. Take “IDIEAMLGSVFDAMEPELDFTGEARNMDEARGQVRSFRSLEVPRVLHASPRVLVQSLADGKSVRHVDRAHFTDDERVEIGKDLLRFMYHGYFVHRFFHADPHAGNVFAAPGGPATLIDWGMVGRLD”: the protein production entry was “failed”. The value for “IDSGLSPSVLMASNSGRRSAPPLNLTGLPGTEKLNEKEKELCQVVRLVPGAYLEYKSALLNECHKQGGLRLAQARALIKIDVNKTRKIYDFLIREGYITKA” was “not failed”; that for “IEDCWLAYATAGTLNEDKSNAILIPTWYSGTHQTWFQQYIGTDHALDPSKYFIISINQIGNGLSVSPANTADDSISMSKFPNVRIGDDVVAQDRLLRQEFGITELFAVVGGSMGAQQTYEWIVRFPDQVHRAAPIAGTAKNTPHDFIFTQTLNETVEADPGFNGGEYSSHEEVADGLRRQSHLWAAMGFSTEFWKQEAWRRLGLESKESVLADFLDPLFMSMDPNTLLNNAWKWQHGDVSRHTGGDLAAALGRVKAKTFVMPISEDMFFPVRDCAAEQALIPGSELRVIEDIAGHLGLFNVSENYIPQIDKNLKE” was “failed”.

As to “IFIGNLDPEIDEKLLYDTFSAFGVILQTPKIMRDPDTGNSKGYAFINFASFDASDAAIEAMNGQYLCNRPITVSYAFKKDSKG”, the protein production result is reported as “not failed”. With “IFLDSNMSLDVVWHVYSNMMSPEIEQFSNSVPKSPIRELLELEPETAKFGKPEKLADGRRVRVTVDVFCKGTFRGIGRNYRIAKCTAAKCALRQLKKQGLIAKKD” the entry was “failed”; with “IGNVQYYLGFNLYDSRTKITKYDNEVGLLGKDSDDNLIYRKGMELGEIWGYTTDRLYTTEDFDSQGKLKNNIPKVEGYNPNPGDILYVDFDGNGIINNGKNTSNEPGDTRIIGNDTRRYQYGIRGGATWKGISLSFILQGVGKRDLWLMNELFYPHYDAYSTLFDSQLNYWTPEHTNSYFPRLYEKAEGNTKANQKPQTRFLQNGAYLSIRNISLSYTFPIKLIKPLGITNLSVFFGGENLFTFDHLPKGIDAERVVTDNLGQRGFTYPYMRQFSFGINLSL”, “failed”; with “IHFTTEVITSRIEPANRYVAEKLRITPGQDILYLERLRSIGDEKAMLIENRINIELCPGIVEIDFNQHNLFPTIESLSKRKIRYSESRYAARLIGNERGHFLDISEDAPVLHLEQLVFFSRELPVEFGNVWLKG”, “failed”.

These data come from a protein production outcome set (Wang et al. 2014).
